For two substances, Kd results are on record in PMC3557450.

The experiment concerns the target soluble recombinant pMHC II I-E^d/λ2^315 (not stated | mouse). Nature of the experiment: SPR.

Regarding “soluble scTCR Vαβ 4B2A1 mutant PS (L115P^linker/L214S^Vβ)”, the equilibrium dissociation constant (Kd) worked out at 5.8 µM.

Take “soluble scTCR Vαβ 4B2A1 mutant PRS (L115P^linker/K199R^Vβ/L214S^Vβ)”: the Kd amounted to 7 µM.
